In assay [1] the target is platelet-derived growth factor-BB (PDGF-BB) (human) (UniProt P01127). Put plainly: peptide binding to PDGF-BB.
The target is the same in assay [2]. The experiment in a line: equilibrium binding.
The target in assay [3] is transforming growth factor-β1 (TGF-β1) (human) (UniProt P01137). The experiment in a line: equilibrium binding.
The target of assay [4] is platelet-derived growth factor-BB (PDGF-BB) (human) (UniProt P01127). Put plainly: method not restated (same value as FN634-648 in paragraph 247).

Chain of platelet-derived growth factor-BB (PDGF-BB) (human) (P01127 82-190 limits assumed): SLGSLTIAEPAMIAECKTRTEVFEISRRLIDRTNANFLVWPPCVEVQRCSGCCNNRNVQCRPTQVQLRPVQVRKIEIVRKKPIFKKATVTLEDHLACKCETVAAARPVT
Chain of transforming growth factor-β1 (TGF-β1) (human) (P01137 279-390 limits assumed): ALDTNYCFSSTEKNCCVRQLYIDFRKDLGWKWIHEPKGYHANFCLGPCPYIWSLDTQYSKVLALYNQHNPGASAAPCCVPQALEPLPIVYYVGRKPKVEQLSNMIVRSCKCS

Turning to QPSHISKYILRWRPKNSVGRWKEAT [peptide 1 (FN634-658) …], the equilibrium dissociation constant (Kd) (commonly the free concentration of one partner at which half of the binding sites on the other are occupied at equilibrium, for simple one-to-one binding) in assay [1] came out at 250 nM; in assay [2] it was 250 nM; in assay [3] it was 130 nM.
In assay [1], WNAPQPSHISKYILRWRPK [FN630-648 …] displayed a dissociation constant Kd of 340 nM. This counts as sub-micromolar.
Regarding QPSVGQQMIFEEHGFRRTTPPTTAT [peptide 4 (FN2043-2067) …], in assay [3], the Kd amounted to 100 nM.
Consider QLISIQQYGHQEVTRFDFTTTSTST [peptide 2 (FN680-704) …], for which the equilibrium dissociation constant (Kd) in assay [1] is 110 nM; in assay [3], 270 nM.
Consider QPSHISKYILRWRPK [peptide 1A (FN634-648) …], for which the results for the Kd in assay [1], in assay [3] and in assay [4] were 450 nM, 440 nM and 450 nM, respectively.
Regarding NGQTPIQRTIKPDVRSYTITGLQPGT [peptide 3 …], the equilibrium dissociation constant (Kd) in assay [3] worked out at 140 nM.
ILRWRPKNSVGRWK [peptide 1B …] returned a Kd in assay [3] of 400 nM.

The record behind these values is patent publication US8759300.
